Measured values from article PMC7924340 (Toxins, 2021).

Assays:
[1] = target: Acetylcholine binding protein from Aplysia californica (Aplysia californica); test: radioligand binding
[2] = target: T1, Acetylcholine binding protein from Lymnaea stagnalis (Lymnaea stagnalis, UniProt P58154 20-229); test: radioligand binding; details: both partners purified
T1 construct: also called AChBP L. stagnalis; L. stagnalis AChBP

Molecule	IC50 [1]	IC50 [2]
α-Cobratoxin from cobra Naja kaouthia venom (from UniProt P01391 1-71) (natural protein)	385 nM	
α-Cobratoxin from cobra Naja kaouthia venom (natural protein) IRCFITPDITSKDCPNGHVCYTKTWCDAFCSIRGKRVDLGCAATCPTVKTGVDIQCCSTDNCNPFPTRKRP		25.4 ± 0.8 nM
